How the values were obtained:
[1] = system: caveolin-1 phosphorylation on tyrosine 14; assay: Phospho-caveolin-1; type: cell-based, human; settings: Src kinase inhibitor pretreatment before Aβ42; hCMEC/D3 cells; western blotting
[2] = system: polarized hCMEC/D3 cell monolayers; assay: Energy dependent uptake of F-Aβ, flow cytometry with or without ATP depletion; type: in vitro ADME, human; settings: 1 μM, 30 min; flow cytometry histograms
[3] = system: lysosomal compartment; settings: from 25 nM in extracellular fluid; ref [58]; cited from earlier work

| Compound | intra-endothelial accumulation in ATP depleted cells compared to control cells [2] | also measured |
| --- | --- | --- |
| Cc1ccc(-c2nn(C(C)(C)C)c3ncnc(N)c23)cc1 [PP1] | – | effect of pretreatment on Aβ42 induced caveolin-1 phosphorylation [1]: block the phosphorylation |
| F-Aβ40: fluorescently labeled soluble Aβ40 | significantly reduced | – |
| F-Aβ42: fluorescently labeled soluble Aβ42 | significantly reduced | – |
| amyloid beta peptide 42 [Aβ42] | – | concentration in the lysosomal compartment [3]: 2500 nM |
